Measurements: publication PMC6395645

Columns and labels:
soluble type-I collagen [1] = molecular target: soluble type-I collagen (UniProt P02454); assay: ELISA; collagen-binding ELISA; soluble type-I collagen immobilised on plates, salivary gland homogenates of 20 WT mosquitoes applied 1 h at room temperature; quantified against Trx-AAPPex1-4
soluble type-I collagen [2] = molecular target: soluble type-I collagen (UniProt P02454); assay: ELISA; collagen-binding ELISA; soluble type-I collagen immobilised on plates, saliva of 20 TG mosquitoes (holds mDsRed-8H7scFv) applied 1 h at room temperature; quantified against Trx-AAPPex1-4
soluble type-I collagen [3] = molecular target: soluble type-I collagen (UniProt P02454); assay: ELISA; collagen-binding ELISA; soluble type-I collagen immobilised on plates (7.5 ug/ml, 100 ul/well), saliva of 20 WT mosquitoes applied 1 h at room temperature; quantified against Trx-AAPPex1-4
soluble type-I collagen [4] = molecular target: soluble type-I collagen (UniProt P02454); assay: ELISA; collagen-binding ELISA; soluble type-I collagen immobilised on plates, salivary gland homogenates of 20 TG mosquitoes (hold mDsRed-8H7scFv) applied 1 h at room temperature; quantified against Trx-AAPPex1-4

soluble type-I collagen, sequence (P02454 152-1207, chain 1 of 2): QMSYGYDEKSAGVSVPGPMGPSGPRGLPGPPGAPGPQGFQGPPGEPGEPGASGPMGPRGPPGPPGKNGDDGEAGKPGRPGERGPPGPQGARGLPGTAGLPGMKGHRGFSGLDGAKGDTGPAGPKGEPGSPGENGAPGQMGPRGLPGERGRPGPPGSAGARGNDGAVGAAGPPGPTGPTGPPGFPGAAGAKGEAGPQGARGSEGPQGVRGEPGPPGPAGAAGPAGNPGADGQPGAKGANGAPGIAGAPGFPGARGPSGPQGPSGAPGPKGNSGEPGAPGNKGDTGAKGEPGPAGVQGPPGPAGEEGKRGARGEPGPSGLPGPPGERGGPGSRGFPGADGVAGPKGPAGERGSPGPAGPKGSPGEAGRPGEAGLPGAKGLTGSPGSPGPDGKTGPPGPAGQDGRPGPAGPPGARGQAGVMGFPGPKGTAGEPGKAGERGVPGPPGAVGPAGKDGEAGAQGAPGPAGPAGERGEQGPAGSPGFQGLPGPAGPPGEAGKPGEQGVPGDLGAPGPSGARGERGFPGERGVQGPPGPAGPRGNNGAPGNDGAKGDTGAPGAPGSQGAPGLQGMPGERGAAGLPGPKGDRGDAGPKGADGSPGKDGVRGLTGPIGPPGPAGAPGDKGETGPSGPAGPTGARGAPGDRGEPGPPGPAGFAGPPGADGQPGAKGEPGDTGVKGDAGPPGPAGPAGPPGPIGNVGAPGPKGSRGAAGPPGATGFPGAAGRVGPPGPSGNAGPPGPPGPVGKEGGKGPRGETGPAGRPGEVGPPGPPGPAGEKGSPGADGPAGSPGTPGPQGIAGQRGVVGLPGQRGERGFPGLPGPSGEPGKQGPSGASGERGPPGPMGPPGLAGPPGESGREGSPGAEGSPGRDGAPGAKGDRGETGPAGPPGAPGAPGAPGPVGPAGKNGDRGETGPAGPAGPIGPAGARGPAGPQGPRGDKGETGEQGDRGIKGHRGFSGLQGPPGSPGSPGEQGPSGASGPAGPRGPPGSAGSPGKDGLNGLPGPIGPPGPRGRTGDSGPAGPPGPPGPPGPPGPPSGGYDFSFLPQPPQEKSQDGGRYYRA
soluble type-I collagen, sequence (P02466 86-1125, chain 2 of 2, further chain): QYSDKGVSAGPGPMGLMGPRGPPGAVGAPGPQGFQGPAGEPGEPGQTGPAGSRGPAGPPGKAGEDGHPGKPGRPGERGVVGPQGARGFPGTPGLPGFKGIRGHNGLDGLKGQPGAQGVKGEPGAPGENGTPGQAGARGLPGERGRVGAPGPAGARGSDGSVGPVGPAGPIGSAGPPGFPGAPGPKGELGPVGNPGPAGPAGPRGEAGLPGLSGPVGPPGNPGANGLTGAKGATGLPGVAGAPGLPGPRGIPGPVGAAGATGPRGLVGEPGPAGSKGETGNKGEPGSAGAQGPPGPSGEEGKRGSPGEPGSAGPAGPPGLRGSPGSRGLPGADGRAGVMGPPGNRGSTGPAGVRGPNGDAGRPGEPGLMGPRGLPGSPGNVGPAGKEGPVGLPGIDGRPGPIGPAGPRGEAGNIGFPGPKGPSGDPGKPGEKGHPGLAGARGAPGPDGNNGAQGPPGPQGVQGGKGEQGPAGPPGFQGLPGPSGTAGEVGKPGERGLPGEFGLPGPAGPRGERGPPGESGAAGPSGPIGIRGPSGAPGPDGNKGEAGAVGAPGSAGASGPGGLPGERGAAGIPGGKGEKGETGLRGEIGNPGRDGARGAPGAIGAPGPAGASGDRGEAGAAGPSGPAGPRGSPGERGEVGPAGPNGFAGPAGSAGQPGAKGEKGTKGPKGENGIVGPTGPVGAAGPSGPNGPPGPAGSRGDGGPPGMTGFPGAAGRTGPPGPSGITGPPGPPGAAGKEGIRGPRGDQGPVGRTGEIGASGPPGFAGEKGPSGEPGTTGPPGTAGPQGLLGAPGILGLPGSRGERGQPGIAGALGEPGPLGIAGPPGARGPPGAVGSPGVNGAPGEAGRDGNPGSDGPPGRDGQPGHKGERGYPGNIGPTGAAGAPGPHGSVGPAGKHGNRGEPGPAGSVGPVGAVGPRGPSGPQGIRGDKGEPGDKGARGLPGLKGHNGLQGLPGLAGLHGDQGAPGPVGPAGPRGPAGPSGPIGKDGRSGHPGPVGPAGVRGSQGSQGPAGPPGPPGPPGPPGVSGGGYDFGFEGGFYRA

“Anopheline antiplatelet protein (AAPP) (from UniProt Q7YT37 20-269) (natural protein)” showed an amount of AAPP capable of binding to collagen (salivary glands of 20 WT mosquitoes) (soluble type-I collagen [1]) of 233 ng, an amount of AAPP capable of binding to collagen, with mDsRed-8H7scFv present (saliva of 20 mosquitoes of each TG line) (soluble type-I collagen [2]) of less than 0.069 ng and an amount of AAPP capable of binding to collagen (saliva of 20 WT mosquitoes) (soluble type-I collagen [3]) of 28.4 ng. It also gave an amount of AAPP capable of binding to collagen, with mDsRed-8H7scFv present (salivary glands of 20 TG-03 mosquitoes) (soluble type-I collagen [4]) of 11.4 ng, an amount of AAPP capable of binding to collagen, with mDsRed-8H7scFv present (salivary glands of 20 TG-30 mosquitoes) (soluble type-I collagen [4]) of 9.95 ng and an amount of AAPP capable of binding to collagen, with mDsRed-8H7scFv present (salivary glands of 20 TG-37 mosquitoes) (soluble type-I collagen [4]) of 10.5 ng.
